Source: the supplement of paper PMC10065799, “High-throughput profiling of sequence recognition by tyrosine kinases and SH2 domains using bacterial peptide display” (eLife, 2023)

Experiments:
MERTK = MERTK (UniProt Q12866); assay: phosphorylation enrichment, bacterial display (enrichment ratio); higher = better substrate or ligand; peptides without Tyr show the background
FGFR1 = FGFR1 (UniProt P11362); assay: as above
Fer (mouse) = assay: as above
Jak2 = Jak2 (UniProt O60674); assay: as above
c-Abl (mouse) = assay: as above
Fyn = Fyn (UniProt P06241); assay: as above
Hck = Hck (UniProt P08631); assay: as above
Fes = Fes (UniProt P07332); assay: as above
EPHB1 = EPHB1 (UniProt P54762); assay: as above
AncSZ = assay: as above
FGFR3 = FGFR3 (UniProt P22607); assay: as above
EPHB2 = EPHB2 (UniProt P29323); assay: as above
c-Src = assay: as above
SHP2-C SH2 = assay: SH2 binding enrichment of the phosphorylated peptide, bacterial display (enrichment ratio); higher = better substrate or ligand; peptides without Tyr show the background
c-Src SH2 = assay: as above
Grb2 SH2 = Grb2 SH2 (UniProt P62993); assay: as above
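For SH2 binding enrichment of the phosphorylated peptide, bacterial display in this document: peptide library displayed on the E. coli surface as eCPX fusions, selected cells deep-sequenced, score is each peptide's frequency after selection divided by its frequency in the input.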
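For phosphorylation enrichment, bacterial display in this document: 11-residue human phosphosite peptides and single-mutation variants displayed on the E. coli surface, counted by deep sequencing, each peptide's frequency after selection divided by its frequency in the unselected input library; frequency after pTyr selection over input frequency; kinase dosed for 20-30% of maximal phosphorylation in three min.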

Chain of Hck (P08631 whole entry, looked up): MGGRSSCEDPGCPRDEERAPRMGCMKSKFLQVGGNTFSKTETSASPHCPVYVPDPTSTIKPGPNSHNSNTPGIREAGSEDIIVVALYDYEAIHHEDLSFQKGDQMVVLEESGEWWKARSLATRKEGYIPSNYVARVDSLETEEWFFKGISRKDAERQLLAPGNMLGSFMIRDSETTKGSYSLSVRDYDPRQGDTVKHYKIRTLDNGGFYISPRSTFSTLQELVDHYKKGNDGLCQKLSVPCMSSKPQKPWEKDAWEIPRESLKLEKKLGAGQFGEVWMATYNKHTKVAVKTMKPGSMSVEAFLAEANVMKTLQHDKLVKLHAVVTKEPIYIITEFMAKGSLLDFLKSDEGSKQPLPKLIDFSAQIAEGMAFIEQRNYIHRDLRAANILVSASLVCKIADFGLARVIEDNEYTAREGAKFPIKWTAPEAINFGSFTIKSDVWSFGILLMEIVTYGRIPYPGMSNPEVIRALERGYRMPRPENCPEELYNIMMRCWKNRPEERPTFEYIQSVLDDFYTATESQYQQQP
Chain of FGFR3 (P22607 whole entry, looked up): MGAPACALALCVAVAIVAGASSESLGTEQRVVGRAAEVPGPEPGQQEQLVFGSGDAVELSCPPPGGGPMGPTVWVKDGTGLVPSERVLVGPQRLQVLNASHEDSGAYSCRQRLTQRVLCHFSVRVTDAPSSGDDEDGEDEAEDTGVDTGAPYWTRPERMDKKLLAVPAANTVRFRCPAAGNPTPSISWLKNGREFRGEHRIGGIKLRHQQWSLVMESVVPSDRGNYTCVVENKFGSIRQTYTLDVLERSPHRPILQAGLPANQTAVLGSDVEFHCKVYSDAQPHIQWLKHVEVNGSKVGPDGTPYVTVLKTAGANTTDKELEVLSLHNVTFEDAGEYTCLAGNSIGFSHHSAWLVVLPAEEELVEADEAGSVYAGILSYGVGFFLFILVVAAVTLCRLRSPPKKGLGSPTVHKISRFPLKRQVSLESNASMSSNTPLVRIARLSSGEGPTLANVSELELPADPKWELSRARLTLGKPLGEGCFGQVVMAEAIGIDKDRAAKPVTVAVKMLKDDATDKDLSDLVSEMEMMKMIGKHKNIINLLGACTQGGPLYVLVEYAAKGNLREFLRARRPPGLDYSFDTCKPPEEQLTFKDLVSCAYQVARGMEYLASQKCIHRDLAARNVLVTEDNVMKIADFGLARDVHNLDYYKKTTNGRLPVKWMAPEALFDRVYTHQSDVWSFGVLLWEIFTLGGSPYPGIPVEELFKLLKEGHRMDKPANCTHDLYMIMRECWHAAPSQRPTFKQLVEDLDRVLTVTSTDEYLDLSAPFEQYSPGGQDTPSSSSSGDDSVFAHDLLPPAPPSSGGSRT
Chain of Fyn (P06241 whole entry, looked up): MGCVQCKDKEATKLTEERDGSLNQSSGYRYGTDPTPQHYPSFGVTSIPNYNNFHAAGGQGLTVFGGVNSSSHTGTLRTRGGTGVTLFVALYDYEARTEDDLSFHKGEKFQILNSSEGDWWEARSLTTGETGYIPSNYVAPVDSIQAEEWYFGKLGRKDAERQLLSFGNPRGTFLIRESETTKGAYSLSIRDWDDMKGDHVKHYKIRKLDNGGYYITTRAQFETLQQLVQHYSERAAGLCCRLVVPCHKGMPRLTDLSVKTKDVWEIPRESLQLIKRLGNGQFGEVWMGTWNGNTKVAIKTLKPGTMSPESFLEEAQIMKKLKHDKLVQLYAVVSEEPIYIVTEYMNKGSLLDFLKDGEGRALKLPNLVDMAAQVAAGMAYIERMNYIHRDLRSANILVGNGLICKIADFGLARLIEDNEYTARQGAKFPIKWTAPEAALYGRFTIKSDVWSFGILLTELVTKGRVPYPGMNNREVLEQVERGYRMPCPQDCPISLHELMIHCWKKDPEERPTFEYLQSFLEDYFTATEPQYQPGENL
Chain of EPHB1 (P54762 whole entry, looked up): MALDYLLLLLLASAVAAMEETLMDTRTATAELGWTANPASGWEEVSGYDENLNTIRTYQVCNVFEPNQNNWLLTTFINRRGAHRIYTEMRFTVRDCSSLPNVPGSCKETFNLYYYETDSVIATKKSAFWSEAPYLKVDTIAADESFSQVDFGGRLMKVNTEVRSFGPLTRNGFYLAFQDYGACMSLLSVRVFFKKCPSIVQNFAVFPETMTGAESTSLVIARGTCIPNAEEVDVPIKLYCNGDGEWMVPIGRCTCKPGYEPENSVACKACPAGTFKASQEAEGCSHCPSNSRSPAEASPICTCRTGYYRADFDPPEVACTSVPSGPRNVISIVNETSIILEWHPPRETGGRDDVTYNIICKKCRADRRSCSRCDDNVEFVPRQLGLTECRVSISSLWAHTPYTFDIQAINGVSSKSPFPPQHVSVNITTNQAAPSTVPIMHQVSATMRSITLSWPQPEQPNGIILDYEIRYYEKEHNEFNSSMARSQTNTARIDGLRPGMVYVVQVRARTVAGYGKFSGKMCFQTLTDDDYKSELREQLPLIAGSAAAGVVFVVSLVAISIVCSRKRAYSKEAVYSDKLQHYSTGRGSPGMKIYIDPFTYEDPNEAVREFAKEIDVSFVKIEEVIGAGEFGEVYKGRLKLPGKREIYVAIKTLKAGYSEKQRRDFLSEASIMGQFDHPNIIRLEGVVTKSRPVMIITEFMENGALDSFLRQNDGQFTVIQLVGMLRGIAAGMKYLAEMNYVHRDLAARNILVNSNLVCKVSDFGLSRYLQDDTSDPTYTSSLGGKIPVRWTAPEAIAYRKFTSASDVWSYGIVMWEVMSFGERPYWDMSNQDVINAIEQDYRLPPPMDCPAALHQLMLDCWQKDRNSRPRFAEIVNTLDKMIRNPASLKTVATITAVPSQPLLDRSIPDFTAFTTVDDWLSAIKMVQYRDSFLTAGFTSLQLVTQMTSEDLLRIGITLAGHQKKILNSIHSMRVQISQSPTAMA
Chain of Fes (P07332 whole entry, looked up): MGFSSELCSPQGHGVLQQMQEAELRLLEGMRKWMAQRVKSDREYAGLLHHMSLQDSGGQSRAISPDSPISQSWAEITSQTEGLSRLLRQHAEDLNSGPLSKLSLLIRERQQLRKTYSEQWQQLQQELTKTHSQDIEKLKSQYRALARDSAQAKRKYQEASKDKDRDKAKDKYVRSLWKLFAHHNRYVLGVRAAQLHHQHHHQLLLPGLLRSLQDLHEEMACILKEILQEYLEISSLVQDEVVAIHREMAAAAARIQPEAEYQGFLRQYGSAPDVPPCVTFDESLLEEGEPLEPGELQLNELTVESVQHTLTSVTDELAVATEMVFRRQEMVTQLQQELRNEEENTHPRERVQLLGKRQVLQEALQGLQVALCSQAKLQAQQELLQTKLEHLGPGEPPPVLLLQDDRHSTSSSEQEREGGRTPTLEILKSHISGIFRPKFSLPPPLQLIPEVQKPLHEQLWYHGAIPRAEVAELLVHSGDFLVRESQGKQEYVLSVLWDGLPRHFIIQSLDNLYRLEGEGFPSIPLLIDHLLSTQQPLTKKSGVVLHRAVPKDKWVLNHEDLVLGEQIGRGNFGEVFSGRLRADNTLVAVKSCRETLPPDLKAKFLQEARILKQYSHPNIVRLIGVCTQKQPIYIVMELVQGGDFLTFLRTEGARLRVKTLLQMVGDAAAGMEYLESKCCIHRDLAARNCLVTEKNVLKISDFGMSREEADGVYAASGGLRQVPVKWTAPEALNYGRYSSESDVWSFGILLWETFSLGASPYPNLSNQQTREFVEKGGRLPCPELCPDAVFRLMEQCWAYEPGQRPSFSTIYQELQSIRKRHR
Chain of Jak2 (O60674 whole entry, looked up): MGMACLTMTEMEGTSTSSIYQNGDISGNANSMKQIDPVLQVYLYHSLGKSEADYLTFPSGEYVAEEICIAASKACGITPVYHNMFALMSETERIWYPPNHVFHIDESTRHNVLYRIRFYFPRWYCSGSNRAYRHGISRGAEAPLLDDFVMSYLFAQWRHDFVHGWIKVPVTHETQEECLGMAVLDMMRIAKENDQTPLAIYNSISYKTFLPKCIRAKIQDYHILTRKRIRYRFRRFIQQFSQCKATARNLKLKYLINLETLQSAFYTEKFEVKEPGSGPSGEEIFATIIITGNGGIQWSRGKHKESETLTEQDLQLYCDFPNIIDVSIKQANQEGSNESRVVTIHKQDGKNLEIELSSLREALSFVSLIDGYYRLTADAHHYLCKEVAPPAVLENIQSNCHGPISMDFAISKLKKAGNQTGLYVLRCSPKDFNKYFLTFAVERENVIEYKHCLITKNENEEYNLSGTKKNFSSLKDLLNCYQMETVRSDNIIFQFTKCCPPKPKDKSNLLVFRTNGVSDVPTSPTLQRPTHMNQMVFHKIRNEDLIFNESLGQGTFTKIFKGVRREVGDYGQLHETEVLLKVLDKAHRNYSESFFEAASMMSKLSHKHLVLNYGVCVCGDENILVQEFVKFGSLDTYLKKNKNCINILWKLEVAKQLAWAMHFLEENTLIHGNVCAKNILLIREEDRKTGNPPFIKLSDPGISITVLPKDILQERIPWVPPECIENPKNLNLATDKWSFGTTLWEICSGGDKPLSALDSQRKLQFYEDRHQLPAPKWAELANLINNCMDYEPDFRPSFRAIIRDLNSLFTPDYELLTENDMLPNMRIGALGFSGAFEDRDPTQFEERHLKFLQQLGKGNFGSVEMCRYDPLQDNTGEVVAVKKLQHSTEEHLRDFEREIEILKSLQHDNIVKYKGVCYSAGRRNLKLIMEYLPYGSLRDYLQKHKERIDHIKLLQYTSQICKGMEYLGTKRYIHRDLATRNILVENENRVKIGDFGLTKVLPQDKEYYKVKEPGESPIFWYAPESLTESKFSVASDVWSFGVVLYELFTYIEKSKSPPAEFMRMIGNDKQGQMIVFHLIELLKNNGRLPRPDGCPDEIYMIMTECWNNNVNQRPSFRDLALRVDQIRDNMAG

SH2 binding enrichment (SHP2-C SH2)	SH2 binding enrichment (c-Src SH2)	SH2 binding enrichment (Grb2 SH2)	Sequence	phosphorylation enrichment (MERTK)	phosphorylation enrichment (FGFR1)	phosphorylation enrichment (Fer (mouse))	phosphorylation enrichment (Jak2)	phosphorylation enrichment (c-Abl (mouse))	phosphorylation enrichment (Fyn)	phosphorylation enrichment (Hck)	phosphorylation enrichment (Fes)	phosphorylation enrichment (EPHB1)	phosphorylation enrichment (AncSZ)	phosphorylation enrichment (FGFR3)	phosphorylation enrichment (EPHB2)	phosphorylation enrichment (c-Src)
0.623	0.465	0.78	IKETHYMVDRC	0.481	0.555	0.47	0.654	0.581	0.455	0.461	0.992	0.472	0.992	0.579	0.704	0.464
0.837	0.619	0.841	ILGTFYETGSI [PAX2_Y73_R71T_YF]	0.568	0.582	0.749	0.871	0.587	0.524	0.621	0.956	0.466	0.773	0.526	0.541	0.529
0.559	1.4	0.998	ILGTYYETGSI [PAX2_Y73_R71T]	3.6	9.71	0.645	1.28	1.16	4.14	2.99	1.04	2.54	0.971	8.15	2.19	4.01
0.534	0.533	0.92	ILLAGCLVMVI [SLC28A3_Y113_Y113C]	0.486	0.422	0.493	1.18	0.995	0.471	0.51	1.26	0.607	1.24	0.829	0.614	0.475
0.65	0.574	1.01	INMKEYCKKDF [NTN1_Y490_K489E_YF]	0.468	0.512	0.427	0.937	0.791	0.669	0.498	1.12	0.66	0.877	0.743	0.678	0.476
0.743	1.67	0.777	IPGRYYETGSI [PAX2_Y73_L69P]	0.405	0.492	0.331	0.573	0.616	0.454	0.428	0.646	0.451	0.505	0.498	0.595	0.437
0.65	0.513	0.742	ISSLRYKLLEE [TRPC6_Y896_E897K]	0.347	0.426	0.38	0.64	0.603	0.503	0.47	0.986	0.514	0.786	0.549	0.476	0.407
0.881	0.719	0.927	IVEYAYNDKAV [PUM3_Y259_I264V]	0.5	0.52	0.455	1	1.01	0.418	0.42	1.1	0.669	0.989	0.673	0.418	0.492
0.742	0.611	0.866	IYRASYVPFAA [RBM47_Y541_G538R]	0.66	0.562	0.521	0.82	7.02	0.593	0.657	0.897	0.81	1.04	0.645	0.571	0.681
0.71	0.498	0.946	KDHPDYKFQPR [SOX10_Y171_YF]	0.468	0.519	0.44	0.566	0.573	0.487	0.48	0.745	0.466	0.694	0.543	0.501	0.453
0.349	0.451	0.722	KDQGGYTMHQD [MAPT_Y29]	0.413	0.512	0.399	0.542	0.569	0.404	0.484	0.793	0.4	0.754	0.465	0.456	0.385
1.48	1.19	1.38	KGPNVCKKTVN [REV3L_Y1156_Y1156C]	0.415	0.529	0.376	0.944	1.13	0.378	0.516	0.863	0.457	0.644	0.741	0.525	0.54

Continued, sequence first:

Sequence	SH2 binding enrichment (SHP2-C SH2)	SH2 binding enrichment (c-Src SH2)	SH2 binding enrichment (Grb2 SH2)	phosphorylation enrichment (MERTK)	phosphorylation enrichment (FGFR1)	phosphorylation enrichment (Fer (mouse))	phosphorylation enrichment (Jak2)	phosphorylation enrichment (c-Abl (mouse))	phosphorylation enrichment (Fyn)	phosphorylation enrichment (Hck)	phosphorylation enrichment (Fes)	phosphorylation enrichment (EPHB1)	phosphorylation enrichment (AncSZ)	phosphorylation enrichment (FGFR3)	phosphorylation enrichment (EPHB2)	phosphorylation enrichment (c-Src)
IKGIRYLHHRG [GUCY2D_Y656]	0.966	1.01	1.39	0.376	0.348	0.432	0.597	0.497	0.415	0.344	0.469	0.423	0.466	0.363	0.358	0.439
ILTLKYPIKHG [ACTA1_Y71_E74K]	1.46	0.787	1.12	0.344	0.449	0.413	0.558	0.367	0.431	0.349	0.588	0.426	0.523	0.497	0.518	0.341
INITIYGKTFH [EFHC1_Y177_R182H]	0.781	0.47	1.15	0.473	0.429	0.579	1.08	0.958	0.519	0.544	1.44	0.546	1.11	0.817	0.513	0.468
INPIIYAFVVE [CCR5_Y297_G301V]	0.73	0.402	0.912	4.13	1	2.66	1.2	2.37	2.42	1.78	1.5	4.53	1.25	1.29	3.82	2.59
IRGNMYYENSY [EGFR_Y112]	0.897	4.19	4.75	1.06	0.58	0.535	0.55	0.449	0.468	0.603	0.733	0.486	0.761	0.665	0.594	0.526
IRKDLYANNVL [ACTA2_Y296]	0.614	0.569	1.23	0.476	0.421	0.422	0.54	0.581	0.413	0.45	0.59	0.38	0.527	0.564	0.46	0.429
IRTIDYRYTVS [IDS_Y497_W502S]	0.823	0.69	0.73	0.411	0.593	0.45	0.713	0.46	0.558	0.532	1.13	0.437	0.789	0.601	0.666	0.385
IVAEFYDNLPH [DEGS1_Y284_A280V_YF]	0.695	0.931	0.727	0.853	0.477	0.978	0.792	0.694	0.549	3.36	0.891	0.517	0.929	0.624	0.556	0.733
IVAEYYDNLPH [DEGS1_Y284_A280V]	0.574	1.5	0.934	1.51	9.37	1.37	1.53	1.25	0.682	3.07	1.38	1.09	1.9	6.4	0.924	0.958
KAIMTYVPSFF [ACTN4_Y260_S262P_YF]	0.836	0.97	0.97	0.487	0.445	0.438	0.678	0.647	0.499	0.497	0.838	0.61	0.72	0.542	0.531	0.46
KANEYYPVVII [ADAMTS18_Y765_L769I]	0.458	0.383	0.721	0.81	12.8	1.45	3.18	2.4	0.613	0.738	0.978	1.65	2.63	10.8	2.08	0.704
KDGSGYISAAE [CALM1_Y100_N98S]	0.816	0.465	0.715	0.464	0.456	0.369	0.6	0.544	0.476	0.444	0.82	0.388	0.648	0.496	0.409	0.4
KDKLPYLYDDP [GPX2_Y125_P126L]	0.682	1.04	0.871	0.461	0.5	0.77	0.857	0.547	0.522	0.537	0.983	0.947	1.17	0.624	0.765	0.455
KDKLPYPFDDP [GPX2_Y125_YF]	0.854	0.454	0.815	0.512	0.567	0.533	0.821	0.581	0.556	0.498	1.01	0.457	1.04	0.638	0.792	0.486
KEEEDYREENN [BMS1_Y651_K652R]	0.822	0.458	0.754	0.601	0.582	0.585	1.15	0.877	0.5	0.65	1.24	0.63	1.3	0.79	0.528	0.536
KFADVYVGICL [B3GALNT1_Y269_E266A]	0.369	0.423	0.731	0.522	0.65	0.978	1.21	1.29	0.787	0.85	1.34	0.846	1.46	0.909	0.988	1.12
KGNMYYENSYA [EGFR_Y113_R108K]	1.05	4.96	10.2	1.17	0.878	1.23	0.481	0.474	0.515	0.561	0.77	0.629	0.667	0.72	0.593	0.473
